In publication PMC7532196:

Legend:
Experiment in all cases: EMSA
Conditions in all cases: EMSA: 30 ng probe in 20 ul, 10 mM Tris-HCl pH 7.4, 50 mM KCl, 5 mM MgCl2, 10% glycerol, room temperature 30 min, 6% PAGE
[1] = molecular target: T1, PSPPH_3297 (Pseudomonas savastanoi pv. phaseolicola 1448A (P. syringae)) (UniProt Q48GM7)
T1 sequence: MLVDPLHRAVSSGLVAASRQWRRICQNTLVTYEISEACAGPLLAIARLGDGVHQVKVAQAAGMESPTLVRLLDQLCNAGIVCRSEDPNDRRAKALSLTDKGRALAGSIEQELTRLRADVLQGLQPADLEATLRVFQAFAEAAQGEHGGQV

[2] = molecular target: T2, MetR (Pseudomonas savastanoi pv. phaseolicola 1448A (P. syringae)) (UniProt Q48EZ0)
T2 sequence: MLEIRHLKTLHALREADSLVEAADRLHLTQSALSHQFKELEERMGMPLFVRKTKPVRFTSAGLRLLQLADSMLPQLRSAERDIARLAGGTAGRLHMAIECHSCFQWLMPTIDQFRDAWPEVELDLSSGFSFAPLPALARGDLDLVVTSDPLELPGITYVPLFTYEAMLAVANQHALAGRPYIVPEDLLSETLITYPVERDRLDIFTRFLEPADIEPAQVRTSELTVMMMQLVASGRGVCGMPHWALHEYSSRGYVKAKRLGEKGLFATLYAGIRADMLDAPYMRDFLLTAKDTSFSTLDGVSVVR

[3] = molecular target: T3, PcaQ (Pseudomonas savastanoi pv. phaseolicola 1448A (P. syringae)) (UniProt Q48JW3)
T3 sequence: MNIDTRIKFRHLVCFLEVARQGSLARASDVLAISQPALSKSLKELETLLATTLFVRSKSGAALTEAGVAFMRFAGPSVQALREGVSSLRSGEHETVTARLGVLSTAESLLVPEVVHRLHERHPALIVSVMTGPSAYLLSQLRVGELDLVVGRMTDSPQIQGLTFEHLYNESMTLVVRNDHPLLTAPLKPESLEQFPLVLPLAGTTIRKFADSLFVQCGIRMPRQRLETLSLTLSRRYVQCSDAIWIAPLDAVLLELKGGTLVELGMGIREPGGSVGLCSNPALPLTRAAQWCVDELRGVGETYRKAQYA

TCTACGCCCCCTCAAAAAACCCTTTCGGGCGTCCCTGCAACCCAAAAAGCCCCACTGGGCAGTTACGGGTTGACTGTAAGAACTTGTTACGAGATATTAGTTAGCATACTACTAATATCCTCCCTAACAATATTGTTCCTAACTAAATTGTTCACGACTCAG (double strand) [PSPPH_3297 promoter]
binding [1]: binds

TCAAGAATTACAGTTGTGCCTTGCGTCATATGTGATCTGCTTATATGTATATGAAAAAAACTCATTATGAGTCAGTCTTGTATAACGTATTTAATACGGCCCTTTAATCAAACTACAAACACTTTTTTCAGGGGATTTCTGTGAA (double strand) [PSPPH_1024 promoter]
binding [2]: binds

CATAGGGGTTGCCAAATGTGTCGAATGCCCCATAAGGTAGCGCTGTCTCATGGAAGGTGACAATGCTTTAT (double strand) [gntR negative control]
binding [2]: no binding

GATGGGTGTTCGGTGATGACTATATGACATCACGGAACCGACTTTAACAGATGAAAAAAATTCAATTACAGGCGAGGTACAGGTTGATCGGCCGCAGACGGCTACTTTTTAAGCGCTATCGGTCGCGCAGCCCCATAAGATAAAGGGCCTGCTCATTTGTATGCA (double strand) [PSPPH_4247 promoter]
binding [2]: binds

ACAATTAGTTGAATAATTTCCTTGGATATGAGGAAGGCGGGCTACAGGTGAACGTATAAAAAATCATGGTTTTAGTTATGCATAACCATGAAAATAAAGGAATTTTTATTAAATGTTGGTATTAATCAAAGGCACGTTTAATCACGCCGTCTA (double strand) [katB promoter]
binding [3]: binds

GGTGCGGCATATCCCGTAGGCTCTGTCATTAAAAATGGCACAATTCTACTAGGCCGTCATTGCCTCCAACATGAATGATTTTCATGCAAAAGCCGCAGCACCACCAAAACCGTTCCGGTTTGCTATCATCCCGTTCTTTAAAGTA (double strand) [PSPPH_2621 promoter]
binding [2]: binds

GTACCTGCCAGAATGTTGAGGGTGATATTGATCCATAACCTTAGCCTCCTACGCCTCTTTAGCTGGACAGCAAAAATTACCGAATTAGCTAAACATTAGGAATAATTCTAGCATTAGCTGTTCAGCTAACAAAGGCCTAAAAG (double strand) [PSPPH_0985 promoter]
binding [3]: binds
